Assay results taken from US7407933B2, “Drug containing angiotensin convertase” (priority 2002, dated 2008).
Substitutions are numbered along the chain they refer to. In names and notes the source's numbering stands.

Legend:
sperm-zona binding = experiment: Sperm-egg (zona pellucida) binding assay; assay type: cell-based, mouse
Protocol: All gametes were placed and handled within TYH medium. […] were isolated from wild-type mice and ACE knockout mice, and dispersed in 250 μl of medium. After sperms were floated for 15 minutes, transferred to 1.5 ml medium and incubated for at least 1 hour. Eggs were separated from superovulated mice and treated with 1 mg/ml of hyaluronidase (Sigma) on THY medium for removing laminated cells. Incubated sperms (approximately 2.0×10^6 sperm/ml) were treated for 90 min with 0.2 U wild-type ACE (ACE-WT), 0.2 U ACE-E414D, 1.0 IU/ml PI-PLC, or […] PI-PLC with 4 mM inositol monophosphate (Sigma), 4 mM inositol monophosphate, and buffer (PBS) alone. For the sperm-egg (zona pellucida) binding assay, gametes were co-incubated in a TYH droplet covered with mineral oil for 1 h, washed gently in PBS and fixed with 4% paraformaldehyde/PBS. The oocytes were visualized at 200× under a light microscope (Olympus) and the number of sperms was counted at a focus showing the widest diameter of eggs.
In addition, the effect of ACE on sperm-egg binding was examined. That is, Epididymal sperms of both wild-type and knockout mice were treated with either wild-type or peptidase-inactivated (E414D) ACEs or PI-PLC and then incubated with unfertilized eggs from C57BL/6 mice. These treatments had no effects on wild-type sperm-zona binding.

DAF = conditions: erythrocyte having prominent acylation; cited from earlier work
[1] = Peptidase activity of ACE; assay type: biochemical; conditions: relative to wild-type ACE
Protocol: FIG. 7 is a measurement of peptidase activity (Pase). The E414D is a mutant that Glu414 in the peptidase active site was substituted to Asp. WT, wild-type ACE-T. Procedures were accorded with the description of Kasahara and Ashihara, Clin Chem. 27:1922-1925.
The obtained PCR product encodes a FLAG-tagged version of the soluble testicular isoform. The cDNA for peptidase-inactivated mutant with amino acid Glu414 replaced by Asp was prepared by the site-directed mutagenesis with the mutation promer: 5′-cttggtgatag cgcaccacga tatgggccac atccagtatt tcatgca-3′ (SEQ ID NO: 3). The culture supernatants of COS7 cells transfected with the ACE cDNAs were collected and recombinant ACEs were purified by anti-FLAG M2-agarose affinity column (Sigma). The somatic isoform of ACE (ACE-S) from rabbit lung (Sigma A-6778) was also used according to the manufacturer's protocol. The peptidase activity of the ACE was measured by the reported method (Kawahara and Ashihara, Clin. Chem. 27:1922-1925, 1981). 1.9. FACS Analysis

PLAP = PLAP conversion assay (GPI-anchored protein releasing activity); assay type: biochemical; conditions: immunoblotting of PLAP
Protocol: This assay uses a nature of nonionic detergent, TritonX-114, which distributes water-soluble molecules and hydrophobia molecules soluble to detergent. By the PLAP conversion assay, GPI-anchored protein releasing activity in a course of purification was monitored. PLAP was prepared by expressing cDNA in COS7 cells, extracted by buffer containing 20 mM Tris, pH 8.0, 150 mM NaCl, 1% TritonX-114, Complete™ protease-inhibitor and the detergent-soluble phase was collected after partitioning at 37° C. PLAP was purified by DEAE-cellulose ionic exchange liquid chromatography (LC) (elution buffer: […] tris pH8.0, 0.1% TritonX-100, 0 mM-500 mM NaCl gradient) and anti-PLAP antibody column (antibody: rabbit anti-PLAP polyclonal antibody, Biomeda; Column: Hitrap NHS-Activated HP, Amercham Bioscience; elution buffer: 100 mM glycine pH2.8). Using detergent-soluble PLAP protein as substrate performed assay. PLAP activity was measured with an alkaline phosphatase detection kit (Nacalai tesque). The conversion reaction was performed in 100 mM Tris, pH 7.5, 5 mM CaCl2, 150 mM NaCl and 0.3 IU/ml of PLAP for 90 min at 37° C. The reaction was stopped by adding TritonX-114 at a final concentration of 2% and 1 mM EDTA, followed by microcentrifugation at 25° C. The water-soluble phase was collected and PLAP activity was measured by the alkaline phosphatase detection kit. […]

EGFP-GPI [2] = experiment: Radiolabeling analysis of released EGFP-GPI from F9 cells; assay type: cell-based; conditions: filipin-pretreated F9 cells
Protocol: F9 cells expressing EGFP-GPI were metabolically labeled with 0.2 mCi/ml of [^32P]-orthophosphoric acid (Amersham Bioscience) or 0.1 mCi/ml of [^3H]-ethanolamine (Amersham Bioscience) for 16 h. Filipin-pretreated cells were incubated with 0.5 μM of ACE, 1.0 IU/ml of PI-PLC or 10% lysate of mouse submaxillary gland containing mouse glandular kallikrein (mGK; enzyme digesting EGFP at near C-terminus) for 1 h at 37° C. Released EGFP was immunoprecipitated with anti-GFP antibody, subjected to SDS-PAGE and transferred onto nitrocellulose membrane. The quantity of EGFP-GPI protein was evaluated by measuring the density of bands detected on EGFP immunoblotting by using a densitometer (Molecular Device) and radioactivity of the cognate band was determined by a liquid scintillation counter.
Therefore, the F9 cells expressing EGFP-GPI were metabolically labeled with [^32P]-phosphate or [^3H]-ethanolamine, and treated with ACE, PI-PLC or mGK. Then, the released proteins from the cells were applied to EGFP immunoblotting, to measure radioactivity for each band (FIG. 15). Measurements were performed at least four times, and the almost same results were obtained. Although the released EGFP-GPI products with ^32P or ^3H labeling were not detected by mGK treatments, both were detected by ACE treatment or PI-PLC treatment, indicating the presence of a portion of GPI-anchor structure in the ACE-released molecules.

EGFP-GPI [3] = experiment: FACS analysis of shedding, EGFP-GPI on F9 cells; assay type: cell-based; conditions: without filipin pre-treatment
E-cadherin = experiment: FACS analysis of shedding, E-cadherin on F9 cells; assay type: cell-based, mouse
prion protein = conditions: HEK293 cells, 1.0 U/ml
CD59 = experiment: FACS analysis of shedding, CD59 on HeLa cells; assay type: cell-based, human; conditions: filipin pre-treated HeLa cells

O=P(O)(O)O[C@@H]1[C@@H](O)[C@H](O)[C@@H](O)[C@H](O)[C@@H]1O [inositol monophosphate, reference compound]
inhibition of the PI-PLC effect on egg binding of ACE knockout sperm (sperm-zona binding; 4 mM with PI-PLC): inhibition

B1: GPI-PLD: only mammalian enzyme known so far showing GPI-anchor-cleaving activity (protein, UniProt P80108 24-840, looked up)
Phosphatidylinositol-glycan-sp …: CGLSTHVEIGHRALEFLQLHNGRVNYRELLLEHQDAYQAGIVFPDCFYPSICKGGKFHDVSESTHWTPFLNASVHYIRENYPLPWEKDTEKLVAFLFGITSHMAADVSWHSLGLEQGFLRTMGAIDFHGSYSEAHSAGDFGGDVLSQFEFNFNYLARRWYVPVKDLLGIYEKLYGRKVITENVIVDCSHIQFLEMYGEMLAVSKLYPTYSTKSPFLVEQFQEYFLGGLDDMAFWSTNIYHLTSFMLENGTSDCNLPENPLFIACGGQQNHTQGSKMQKNDFHRNLTTSLTESVDRNINYTERGVFFSVNSWTPDSMSFIYKALERNIRTMFIGGSQLSQKHVSSPLASYFLSFPYARLGWAMTSADLNQDGHGDLVVGAPGYSRPGHIHIGRVYLIYGNDLGLPPVDLDLDKEAHRILEGFQPSGRFGSALAVLDFNVDGVPDLAVGAPSVGSEQLTYKGAVYVYFGSKQGGMSSSPNITISCQDIYCNLGWTLLAADVNGDSEPDLVIGSPFAPGGGKQKGIVAAFYSGPSLSDKEKLNVEAANWTVRGEEDFSWFGYSLHGVTVDNRTLLLVGSPTWKNASRLGHLLHIRDEKKSLGRVYGYFPPNGQSWFTISGDKAMGKLGTSLSSGHVLMNGTLKQVLLVGAPTYDDVSKVAFLTVTLHQGGATRMYALTSDAQPLLLSTFSGDRRFSRFGGVLHLSDLDDDGLDEIIMAAPLRIADVTSGLIGGEDGRVYVYNGKETTLGDMTGKCKSWITPCPEEKAQYVLISPEASSRFGSSLITVRSKAKNQVVIAAGRSSLGARLSGALHVYSLGSD
release of DAF from the intact erythrocyte (DAF): could not release

B2: ACE (E414D): peptidase-inactivated mutant ACE with amino acid Glu414 replaced by Asp (protein, listed as Mus musculus)
chain: MGQGWATPGLPSFLFLLLCCGHHLLVLSQVATDHVTANQGITNQATTRSQTTTHQATIDQTTQIPNLETDEAKADRFVEEYDRTAQVLLNEYAEANWQYNTNITIEGSKILLEKSTEVSNHTLKYGTRAKTFDVSNFQNSSIKRIIKKLQNLDRAVLPPKELEEYNQILLDMETTYSLSNICYTNGTCMPLEPDLTNMMATSRKYEELLWAWKSWRDKVGRAILPFFPKYVEFSNKIAKLNGYTDAGDSWRSLYESDNLEQDLEKLYQELQPLYLNLHAYVRRSLHRHYGSEYINLDGPIPAHLLGNMWAQTWSNIYDLVAPFPSAPNIDATEAMIKQGWTPRRIFKEADNFFTSLGLLPVPPEFWNKSMLEKPTDGREVVCHPSAWDFYNGKDFRIKQCTSVNMEDLVIAHHDMGHIQYFMQYKDLPVTFREGANPGFHEAIGDIMALSVSTPKHLYSLNLLSTEGSGYEYDINFLMKMALDKIAFIPFSYLIDQWRWRVFDGSITKENYNQEWWSLRLKYQGLCPPVPRSQGDFDPGSKFHVPANVPYVRYFVSFIIQFQFHEALCRAAGHTGPLHKCDIYQSKEAGKLLADAMKLGYSKPWPEAMKLITGQPNMSASAMMNYFKPLTEWLVTENRRHGETLGWPEYNWAPNTARAEGSTAESNRVNFLGLYLEPQQARVGQWVLLFLGVALLVATVGLAHRLYNIRNHHSLRRPHRGPQFGSEVELRHSLAHRLYNIRNHHSLRRPHRGPQFGSEVELRHS
peptidase activity compared with wild-type ACE [1]: less than 1/1000
GPI-anchored protein releasing activity compared with wild-type ACE (PLAP): not changed
sperm-zona binding of ACE knockout sperm (sperm-zona binding; epididymal sperm of ACE knockout mice, eggs from C57BL/6 mice): vigorously restored

B3: ACE: angiotensin-converting enzyme, isoform not named at the place (ACE-S in the FACS tests of b107/b108) (protein, listed as Mus musculus)
chain: B2 chain with D414E
radioactivity of released products compared with PI-PLC-released molecules, labeled on the ethanolamine (EGFP-GPI [2]; 3H ethanolamine label): a half
radioactivity of released products compared with PI-PLC-released molecules, labeled on the phosphate (EGFP-GPI [2]; 32P phosphate label): about one-third
released EGFP-GPI products with 32P or 3H labeling (EGFP-GPI [2]): detected
effect on EGFP-GPI expression (EGFP-GPI [3]): little effect
effect on the transmembrane protein E-cadherin (E-cadherin): no effect
shedding of prion protein from cell surface (prion protein): efficiently shed
dose dependence of CD59 shedding (CD59): dose-dependent
